Assay results published in patent US12746270 (dated 2026).

Target: human megalin (human)
Assay: SPR

Sequence of human megalin (human) (O00711 whole entry): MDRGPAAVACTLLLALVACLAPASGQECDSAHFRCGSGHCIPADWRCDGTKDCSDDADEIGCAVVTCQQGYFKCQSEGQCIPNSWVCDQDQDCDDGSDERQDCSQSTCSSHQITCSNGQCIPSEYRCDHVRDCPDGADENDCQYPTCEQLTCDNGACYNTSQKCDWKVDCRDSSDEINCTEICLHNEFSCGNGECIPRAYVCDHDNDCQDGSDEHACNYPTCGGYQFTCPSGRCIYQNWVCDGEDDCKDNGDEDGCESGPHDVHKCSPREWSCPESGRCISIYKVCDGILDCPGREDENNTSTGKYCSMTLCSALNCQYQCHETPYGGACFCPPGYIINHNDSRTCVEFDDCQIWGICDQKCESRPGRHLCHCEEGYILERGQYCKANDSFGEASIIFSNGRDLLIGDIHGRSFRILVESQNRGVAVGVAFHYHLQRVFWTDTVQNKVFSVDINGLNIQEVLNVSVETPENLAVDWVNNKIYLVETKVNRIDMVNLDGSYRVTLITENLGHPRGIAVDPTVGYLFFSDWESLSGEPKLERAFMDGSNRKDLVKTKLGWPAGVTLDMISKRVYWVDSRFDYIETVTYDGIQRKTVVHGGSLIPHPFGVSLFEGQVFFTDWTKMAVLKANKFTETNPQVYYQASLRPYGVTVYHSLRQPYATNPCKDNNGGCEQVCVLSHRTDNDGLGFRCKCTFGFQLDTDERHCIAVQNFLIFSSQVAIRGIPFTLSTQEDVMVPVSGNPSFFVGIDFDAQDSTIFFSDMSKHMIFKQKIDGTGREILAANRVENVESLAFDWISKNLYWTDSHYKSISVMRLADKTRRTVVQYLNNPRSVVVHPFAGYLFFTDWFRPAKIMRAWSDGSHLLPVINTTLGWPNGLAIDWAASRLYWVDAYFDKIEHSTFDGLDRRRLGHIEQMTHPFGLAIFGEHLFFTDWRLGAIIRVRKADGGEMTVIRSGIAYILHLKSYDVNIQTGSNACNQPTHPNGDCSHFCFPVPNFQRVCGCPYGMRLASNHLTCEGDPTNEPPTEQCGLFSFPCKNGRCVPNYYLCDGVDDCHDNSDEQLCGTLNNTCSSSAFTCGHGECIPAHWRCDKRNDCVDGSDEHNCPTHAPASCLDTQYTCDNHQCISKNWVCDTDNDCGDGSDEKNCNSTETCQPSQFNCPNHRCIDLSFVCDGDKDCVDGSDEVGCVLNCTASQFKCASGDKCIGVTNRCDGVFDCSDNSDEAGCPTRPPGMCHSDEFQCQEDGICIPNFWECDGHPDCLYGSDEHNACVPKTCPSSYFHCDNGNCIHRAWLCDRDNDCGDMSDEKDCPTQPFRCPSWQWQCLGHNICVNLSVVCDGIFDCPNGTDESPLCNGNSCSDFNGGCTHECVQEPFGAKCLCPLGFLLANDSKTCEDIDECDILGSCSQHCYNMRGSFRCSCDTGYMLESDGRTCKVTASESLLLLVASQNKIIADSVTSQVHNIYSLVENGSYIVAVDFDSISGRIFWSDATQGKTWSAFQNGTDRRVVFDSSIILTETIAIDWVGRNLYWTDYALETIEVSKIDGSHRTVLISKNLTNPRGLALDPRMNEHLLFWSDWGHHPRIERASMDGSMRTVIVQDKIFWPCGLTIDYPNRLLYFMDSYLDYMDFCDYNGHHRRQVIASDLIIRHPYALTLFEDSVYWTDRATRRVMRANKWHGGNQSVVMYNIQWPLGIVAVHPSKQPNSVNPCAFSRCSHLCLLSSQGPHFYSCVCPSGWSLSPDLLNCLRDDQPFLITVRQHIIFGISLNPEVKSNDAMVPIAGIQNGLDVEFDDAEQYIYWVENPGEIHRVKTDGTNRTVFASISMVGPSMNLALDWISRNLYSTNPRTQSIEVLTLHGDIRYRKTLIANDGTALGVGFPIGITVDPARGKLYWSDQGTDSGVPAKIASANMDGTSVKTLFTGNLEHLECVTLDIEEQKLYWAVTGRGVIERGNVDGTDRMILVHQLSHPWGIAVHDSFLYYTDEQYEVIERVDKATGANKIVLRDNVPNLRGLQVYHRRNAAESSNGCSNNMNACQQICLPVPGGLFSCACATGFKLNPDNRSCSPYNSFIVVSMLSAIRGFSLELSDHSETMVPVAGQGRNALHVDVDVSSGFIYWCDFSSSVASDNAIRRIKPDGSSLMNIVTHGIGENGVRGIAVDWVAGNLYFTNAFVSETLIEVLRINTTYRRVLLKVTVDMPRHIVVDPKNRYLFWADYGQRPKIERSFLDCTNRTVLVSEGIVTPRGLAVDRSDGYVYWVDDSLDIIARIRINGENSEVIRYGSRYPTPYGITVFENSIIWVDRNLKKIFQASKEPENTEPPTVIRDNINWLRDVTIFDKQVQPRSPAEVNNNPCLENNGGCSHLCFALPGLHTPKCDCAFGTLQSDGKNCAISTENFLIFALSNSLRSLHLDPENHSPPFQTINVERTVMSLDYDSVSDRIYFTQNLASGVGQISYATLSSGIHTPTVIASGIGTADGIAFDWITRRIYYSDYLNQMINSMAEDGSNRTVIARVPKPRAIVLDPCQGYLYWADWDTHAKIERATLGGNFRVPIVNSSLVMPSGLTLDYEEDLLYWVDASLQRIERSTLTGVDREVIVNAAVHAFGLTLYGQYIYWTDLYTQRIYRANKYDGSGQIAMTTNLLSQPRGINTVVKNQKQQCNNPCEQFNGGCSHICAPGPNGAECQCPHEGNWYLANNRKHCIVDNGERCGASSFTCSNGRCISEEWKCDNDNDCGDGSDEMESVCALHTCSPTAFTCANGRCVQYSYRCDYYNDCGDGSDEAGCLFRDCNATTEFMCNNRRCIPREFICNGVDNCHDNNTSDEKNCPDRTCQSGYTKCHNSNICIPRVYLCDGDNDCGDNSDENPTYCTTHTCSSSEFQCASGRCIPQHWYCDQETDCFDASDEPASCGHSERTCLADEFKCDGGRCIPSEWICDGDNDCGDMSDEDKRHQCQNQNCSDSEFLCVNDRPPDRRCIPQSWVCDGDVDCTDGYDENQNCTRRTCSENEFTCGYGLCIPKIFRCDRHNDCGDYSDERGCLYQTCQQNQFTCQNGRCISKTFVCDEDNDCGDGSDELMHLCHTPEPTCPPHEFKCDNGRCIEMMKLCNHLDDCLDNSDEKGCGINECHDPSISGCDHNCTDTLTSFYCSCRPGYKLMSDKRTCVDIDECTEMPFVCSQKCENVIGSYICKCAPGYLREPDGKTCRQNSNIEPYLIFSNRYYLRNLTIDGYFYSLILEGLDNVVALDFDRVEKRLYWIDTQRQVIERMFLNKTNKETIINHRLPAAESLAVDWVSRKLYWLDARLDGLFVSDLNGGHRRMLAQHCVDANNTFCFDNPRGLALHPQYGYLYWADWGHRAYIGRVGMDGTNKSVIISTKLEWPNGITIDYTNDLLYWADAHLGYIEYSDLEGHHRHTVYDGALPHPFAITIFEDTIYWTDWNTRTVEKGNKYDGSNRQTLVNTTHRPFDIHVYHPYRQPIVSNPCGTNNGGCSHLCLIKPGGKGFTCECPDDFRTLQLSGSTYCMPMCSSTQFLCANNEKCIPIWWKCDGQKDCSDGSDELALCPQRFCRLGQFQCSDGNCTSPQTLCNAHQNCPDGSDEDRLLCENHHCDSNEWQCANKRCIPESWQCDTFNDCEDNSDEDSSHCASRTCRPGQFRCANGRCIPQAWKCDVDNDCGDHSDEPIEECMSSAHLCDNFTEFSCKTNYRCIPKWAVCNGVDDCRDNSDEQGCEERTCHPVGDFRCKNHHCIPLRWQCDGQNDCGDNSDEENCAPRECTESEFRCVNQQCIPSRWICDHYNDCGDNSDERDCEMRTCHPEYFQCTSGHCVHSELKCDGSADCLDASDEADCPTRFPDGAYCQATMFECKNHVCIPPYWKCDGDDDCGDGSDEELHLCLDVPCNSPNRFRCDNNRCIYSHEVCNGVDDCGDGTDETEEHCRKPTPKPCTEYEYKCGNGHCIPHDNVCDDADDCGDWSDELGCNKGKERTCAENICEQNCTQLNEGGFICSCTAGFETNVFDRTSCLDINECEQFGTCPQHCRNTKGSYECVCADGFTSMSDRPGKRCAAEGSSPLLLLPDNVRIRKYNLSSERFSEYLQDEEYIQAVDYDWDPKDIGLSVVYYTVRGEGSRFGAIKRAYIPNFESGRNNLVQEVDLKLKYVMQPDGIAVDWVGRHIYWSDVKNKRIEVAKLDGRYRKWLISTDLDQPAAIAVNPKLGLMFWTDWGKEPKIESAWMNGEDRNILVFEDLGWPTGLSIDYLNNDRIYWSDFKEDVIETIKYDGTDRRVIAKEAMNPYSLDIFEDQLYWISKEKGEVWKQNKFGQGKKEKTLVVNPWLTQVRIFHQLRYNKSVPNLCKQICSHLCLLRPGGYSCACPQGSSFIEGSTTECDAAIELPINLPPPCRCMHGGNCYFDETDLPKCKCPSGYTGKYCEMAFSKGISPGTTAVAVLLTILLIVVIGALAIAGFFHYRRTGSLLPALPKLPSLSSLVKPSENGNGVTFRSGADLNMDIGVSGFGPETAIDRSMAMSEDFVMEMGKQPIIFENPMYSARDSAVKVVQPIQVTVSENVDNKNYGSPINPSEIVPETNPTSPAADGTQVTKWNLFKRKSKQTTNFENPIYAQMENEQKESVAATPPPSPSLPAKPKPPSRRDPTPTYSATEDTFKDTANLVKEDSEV

Kd: ~60 nM
B1: WT human NGAL (ligand-free) (protein)
chain: QDSTSDLIPAPPLSKVPLQQNFQDNQFQGKWYVVGLAGNAILREDKDPQKMYATIYELKEDKSYNVTSVLFRKKKCDYWIRTFVPGCQPGEFTLGNIKSYPGLTSYLVRVVSTNYNQHAMVFFKKVSQNREYFKITLYGRTKELTSELKENFIRFSKSLGLPENHIVFPVPIDQCIDG
